Data as given in article PMC9168836, “Clamping of DNA shuts the condensin neck gate” (Proceedings of the National Academy of Sciences of the …, 2021).

T1: Smc4-3xStrepII (budding yeast (S. cerevisiae), UniProt Q12267 1-1418)
T1 construct: Smc4, SMC subunit of budding yeast (S. cerevisiae) condensin; only the head domain, proximal coiled coil and residues 126-144 are resolved in the maps; The tag's end is read from the plasmid's name SMC4-3xStrepII; also called Scm4
T1 sequence: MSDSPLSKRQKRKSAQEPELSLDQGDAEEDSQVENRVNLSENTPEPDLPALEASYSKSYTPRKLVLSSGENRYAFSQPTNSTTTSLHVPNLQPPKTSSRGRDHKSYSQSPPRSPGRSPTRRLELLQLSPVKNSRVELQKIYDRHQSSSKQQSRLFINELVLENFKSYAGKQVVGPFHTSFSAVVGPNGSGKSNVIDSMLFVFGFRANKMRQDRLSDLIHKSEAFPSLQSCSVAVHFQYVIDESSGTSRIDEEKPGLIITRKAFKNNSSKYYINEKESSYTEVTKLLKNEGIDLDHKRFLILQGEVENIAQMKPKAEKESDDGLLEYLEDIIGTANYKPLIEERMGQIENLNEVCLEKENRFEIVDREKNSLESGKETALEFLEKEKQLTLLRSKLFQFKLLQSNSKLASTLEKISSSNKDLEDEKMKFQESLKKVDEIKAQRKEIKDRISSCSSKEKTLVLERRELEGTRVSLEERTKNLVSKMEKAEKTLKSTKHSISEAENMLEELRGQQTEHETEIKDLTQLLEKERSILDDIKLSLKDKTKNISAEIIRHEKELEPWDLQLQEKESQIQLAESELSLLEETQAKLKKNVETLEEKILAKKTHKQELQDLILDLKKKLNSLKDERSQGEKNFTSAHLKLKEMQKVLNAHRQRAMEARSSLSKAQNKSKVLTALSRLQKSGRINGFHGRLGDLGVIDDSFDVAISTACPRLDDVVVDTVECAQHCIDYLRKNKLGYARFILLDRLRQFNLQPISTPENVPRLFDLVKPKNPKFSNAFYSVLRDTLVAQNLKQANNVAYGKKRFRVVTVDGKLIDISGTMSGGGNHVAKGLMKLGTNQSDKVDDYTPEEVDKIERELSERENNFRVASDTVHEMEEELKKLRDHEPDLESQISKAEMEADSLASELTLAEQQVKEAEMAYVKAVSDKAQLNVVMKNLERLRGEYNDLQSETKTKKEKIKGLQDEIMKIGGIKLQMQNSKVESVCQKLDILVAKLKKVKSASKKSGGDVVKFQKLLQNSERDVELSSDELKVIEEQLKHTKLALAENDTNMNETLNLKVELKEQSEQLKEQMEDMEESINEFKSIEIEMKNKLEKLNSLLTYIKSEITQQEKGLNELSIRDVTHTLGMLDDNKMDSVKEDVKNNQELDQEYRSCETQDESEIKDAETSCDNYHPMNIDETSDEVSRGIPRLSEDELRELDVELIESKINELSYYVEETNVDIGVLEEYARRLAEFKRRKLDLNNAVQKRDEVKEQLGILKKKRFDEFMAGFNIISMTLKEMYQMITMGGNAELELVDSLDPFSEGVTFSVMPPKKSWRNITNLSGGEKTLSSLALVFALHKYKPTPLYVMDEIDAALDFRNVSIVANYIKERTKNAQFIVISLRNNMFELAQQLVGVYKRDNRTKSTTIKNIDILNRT

B1: Ycs4 (natural protein, S. cerevisiae)
chain: MSGFSLSEYLTKFQTTDRESYPRLQDPSRELNVIIDQLAVSPEQIDASPDSLEALIDLCHDFPHLTPKLQTQLSYLISSSLSNLSKDIKANLSSNVNFTEIGGLIPQWKRHLEEYGYLIQVLLTFLQDELHKVSSQSTNLNRSAKNSKNDSANVELFKRDCNQMENLLESITKLLEINLSKIFQTTPEKDLFIGLFTRPLFVLLEIEPVTKVSSLKMFIQRILAMCVKNHGQSSSIQSSLMTNLTYFLHLSVFNAELLKLLNDEYNYPQLTEDILKEISTRVFNAKDTTGPKAISNFLIKLSELSPGIMLRQMNLVITLLNNSSITLRCSVVEACGNIVAELAQDPQTMEHYKQQIAVLIELLEERFQDSNPYVRTKAIQGCSKICDLSSKFNKSKAKFTSLAVRSLQDRSSLVRRNSVKLLSKLLLKHPFKAIHGSQLRLSEWEEYLKGSESQLNSTLKKVESQETLNDTIERSLIEEEVEQDEGQCRTELEGSFNKSAELSRIENEVENINATNTSVLMKLKLMIVYYKDAISFIKEIHKSIELISNLLFSKNRNEVLESMDFLVLADAFDIELSEFGIKKMLHLVWMKGTNDEGTSISVHLIECYKQLFLTAPDSCNMQEKAAHIAKNLINLSIGASIADLASLEQLLGMMYEQKLIDQHVINILWAIYNSASKASMQKEQNVNNRDSEKGFSKEQIHGSIIILGMLSLADNEIALKGLESLLNIGLGAVGLKDLTLCRYSCLALERMVPKRSTIITKAINQELEDVAVKKLYAIIINYTKDNEYYPMCEQALSALFTISSKPDILATDLIREKTMMTFGKPEEEDSILSLEQSSRVVSLSQLLFIVGQVAIKTLVYLEKCEAEFKKRKIEAETRNGKVKNQGADVTNTTQDNGGDKELEMIGGTNEDDFTDAIQFVKENELLFGEKSILGKFCPIVEEIVSNSSRFSDPMLQRTATLCLEKLMCLSSKYCEKSLPLLITVMEKSPDPTIRSNAVLGLGDMAVCFNNLVDENTDYLYRRLHDENLMVQRTCLMTVTFLILAGQVKVKGQLGEMAKCLDNPDQGISDMCRLFFTELASKDNAIYNGFIDIFSNLSSDDLLGKESFKKIIKFLLTFIDKERHQKQLNEKLVGRLRKCETQKQWDDIAFVLNNLPYKNEDVTALLEQGFKVVSAKE
notes: Ycs4, HAWK (HEAT repeat) subunit of S. cerevisiae condensin

Assays:
Settings in all cases: both partners purified
Ycs4 = target: B1; assay: cryo-EM structure; condensin pentamer (Smc2, Smc4, Brn1, Ycs4, Ycg1) with 80-bp dsDNA, 5 mM ADP, 1 mM BeSO4, 10 mM NaF in TNT buffer pH 7.5; separate maps of the clamped head module and of Ycg1-DNA
Smc4-3xStrepII [1] = target: T1, Smc4-3xStrepII; assay: cryo-EM structure; condensin tetramer (Smc2, Smc4, Brn1, Ycs4) with 80-bp dsDNA, 5 mM ADP, 1 mM BeSO4, 10 mM NaF in TNT buffer (30 mM Tris/HCl, 60 mM NaCl, 1 mM TCEP, 2 mM MgCl2, pH 7.5), 30 min at room temperature; clamped head module, Forms I and II
Smc4-3xStrepII [2] = target: T1, Smc4-3xStrepII; assay: cryo-EM structure; condensin pentamer (Smc2, Smc4, Brn1, Ycs4, Ycg1) with 80-bp dsDNA, 5 mM ADP, 1 mM BeSO4, 10 mM NaF in TNT buffer pH 7.5; separate maps of the clamped head module and of Ycg1-DNA

Row | Binder | binding result (Ycs4) | binding result (Smc4-3xStrepII [1]) | binding result (Smc4-3xStrepII [2])
1 | Smc2 (natural protein, budding yeast (S. cerevisiae), Smc2, SMC subunit of budding yeast (S. cerevisiae) condensin; only the head domain and proximal coiled coil (neck) are resolved in the maps; Subunit of the wild-type condensin tetramer and pentamer used for cryo-EM) MKVEELIIDGFKSYATRTVITDWDPQFNAITGLNGSGKSNILDAICFVLGIASMSTVRASSLQDLIYKRGQAGVTKASVTIVFDNTDKSNSPIGFTNSPQISVTRQVVLGGTSKYLINGHRAPQQSVLQLFQSVQLNINNPNFLIMQGKITKVLNMKPSEILSLIEEAAGTKMFEDRREKAERTMSKKETKLQENRTLLTEEIEPKLEKLRNEKRMFLEFQSTQTDLEKTERIVVSYEYYNIKHKHTSIRETLENGETRMKMLNEFVKKTSEEIDSLNEDVEEIKLQKEKELHKEGTISKLENKENGLLNEISRLKTSLSIKVENLNDTTEKSKALESEIASSSAKLIEKKSAYANTEKDYKMVQEQLSKQRDLYKRKEELVSTLTTGISSTGAADGGYNAQLAKAKTELNEVSLAIKKSSMKMELLKKELLTIEPKLKEATKDNELNVKHVKQCQETCDKLRARLVEYGFDPSRIKDLKQREDKLKSHYYQTCKNSEYLKRRVTNLEFNYTKPYPNFEASFVHGVVGQLFQIDNDNIRYATALQTCAGGRLFNVVVQDSQTATQLLERGRLRKRVTIIPLDKIYTRPISSQVLDLAKKIAPGKVELAINLIRFDESITKAMEFIFGNSLICEDPETAKKITFHPKIRARSITLQGDVYDPEGTLSGGSRNTSESLLVDIQKYNQIQKQIETIQADLNHVTEELQTQYATSQKTKTIQSDLNLSLHKLDLAKRNLDANPSSQIIARNEEILRDIGECENEIKTKQMSLKKCQEEVSTIEKDMKEYDSDKGSKLNELKKELKLLAKELEEQESESERKYDLFQNLELETEQLSSELDSNKTLLHNHLKSIESLKLENSDLEGKIRGVEDDLVTVQTELNEEKKRLMDIDDELNELETLIKKKQDEKKSSELELQKLVHDLNKYKSNTNNMEKIIEDLRQKHEFLEDFDLVRNIVKQNEGIDLDTYRERSKQLNEKFQELRKKVNPNIMNMIENVEKKEAALKTMIKTIEKDKMKIQETISKLNEYKRETLVKTWEKVTLDFGNIFADLLPNSFAKLVPCEGKDVTQGLEVKVKLGNIWKESLIELSGGQRSLIALSLIMALLQFRPAPMYILDEVDAALDLSHTQNIGHLIKTRFKGSQFIVVSLKEGMFANANRVFRTRFQDGTSVVSIM | binds | binds | –
2 | B1 | – | – | binds
